Values quoted from earlier work as cited in publication PMC9274133.

Tests used:
IL-6R (Homo sapiens) = IL-6R (Homo sapiens) (UniProt P08887)
gp130 (Homo sapiens) = gp130 (Homo sapiens) (UniProt P40189)
IL-11R (Homo sapiens) = IL-11R (Homo sapiens) (UniProt Q14626)
IL-11R (Homo sapiens), sequence (Q14626 23-370): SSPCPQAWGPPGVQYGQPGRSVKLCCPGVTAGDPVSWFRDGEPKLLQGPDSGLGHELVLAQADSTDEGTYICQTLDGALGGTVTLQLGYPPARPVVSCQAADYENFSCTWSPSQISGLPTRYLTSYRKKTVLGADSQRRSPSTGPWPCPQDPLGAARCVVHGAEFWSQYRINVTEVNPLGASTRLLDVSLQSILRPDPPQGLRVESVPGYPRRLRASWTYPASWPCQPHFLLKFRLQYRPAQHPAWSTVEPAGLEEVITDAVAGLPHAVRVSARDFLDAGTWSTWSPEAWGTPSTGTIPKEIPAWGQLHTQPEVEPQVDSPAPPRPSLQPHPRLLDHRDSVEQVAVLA

gp130 (Homo sapiens), sequence (P40189 23-619): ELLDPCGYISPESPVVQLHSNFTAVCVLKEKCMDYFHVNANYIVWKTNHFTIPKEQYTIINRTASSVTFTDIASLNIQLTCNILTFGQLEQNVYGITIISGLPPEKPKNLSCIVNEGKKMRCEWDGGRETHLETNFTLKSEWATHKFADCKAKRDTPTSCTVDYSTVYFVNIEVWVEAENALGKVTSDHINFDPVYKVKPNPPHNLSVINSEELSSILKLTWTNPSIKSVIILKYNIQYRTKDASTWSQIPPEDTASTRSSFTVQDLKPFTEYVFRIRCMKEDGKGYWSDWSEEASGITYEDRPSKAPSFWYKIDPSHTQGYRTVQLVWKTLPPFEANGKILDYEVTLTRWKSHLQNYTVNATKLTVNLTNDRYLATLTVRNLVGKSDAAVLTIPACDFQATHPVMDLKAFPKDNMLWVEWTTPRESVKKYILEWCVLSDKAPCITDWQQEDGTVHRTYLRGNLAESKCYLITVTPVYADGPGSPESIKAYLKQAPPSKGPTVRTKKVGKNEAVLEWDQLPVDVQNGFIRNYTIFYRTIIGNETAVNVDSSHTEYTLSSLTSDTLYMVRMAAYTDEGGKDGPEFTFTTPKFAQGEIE
IL-11, sequence (P20809 22-199): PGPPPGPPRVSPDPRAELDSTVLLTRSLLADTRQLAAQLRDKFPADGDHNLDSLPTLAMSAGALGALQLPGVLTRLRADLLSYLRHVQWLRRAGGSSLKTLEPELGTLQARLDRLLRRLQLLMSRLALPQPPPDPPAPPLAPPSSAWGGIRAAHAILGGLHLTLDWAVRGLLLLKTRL
IL-6R (Homo sapiens), sequence (P08887 20-355): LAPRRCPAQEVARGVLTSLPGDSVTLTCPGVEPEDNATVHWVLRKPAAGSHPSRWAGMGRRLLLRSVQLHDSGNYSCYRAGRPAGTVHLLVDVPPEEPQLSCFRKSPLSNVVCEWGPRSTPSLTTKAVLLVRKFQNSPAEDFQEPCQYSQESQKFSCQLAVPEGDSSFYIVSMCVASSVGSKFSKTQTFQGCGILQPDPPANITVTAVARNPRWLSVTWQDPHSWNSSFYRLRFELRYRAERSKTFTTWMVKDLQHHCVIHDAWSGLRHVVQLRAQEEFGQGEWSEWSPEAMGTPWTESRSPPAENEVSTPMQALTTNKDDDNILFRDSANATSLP

For IL-6 (from UniProt P05231), the Kd (IL-6R (Homo sapiens)) is given as 1 nM.
In the case of “IL-6/IL-6R complex (from UniProt P05231)”, the Kd (gp130 (Homo sapiens)) is listed as 0.01 nM.
For IL-11 (from UniProt P20809), the Kd (IL-11R (Homo sapiens)) is given as 10 nM.
